Values quoted from earlier work, collected in paper PMC8707981.
Read-outs that look alike come from different tables or passages of the source.

What was measured:
[1] = molecular target: Spike protein RBD (SARS-CoV-2) (UniProt P0DTC2)
[2] = molecular target: Spike protein RBD (SARS-CoV-2) (UniProt P0DTC2); remark: listed apart in the source

Substance | Kd [1] [nM] | Kd [2] [nM]
Casirivimab | 0.0458 | –
Imdevimab | – | 0.0467
